# Where a chain is given by its changes, count along the chain named.
# B1: mAb27405 (antibody, human IgG4 S228P, kappa, V domains shown)
# VH: QVQLVESGGGLVKPGGSLRLSCAASGFTFSDYYMSWIRQAPGKGLEWVSYISRTGSTKYYADSVKGRFTISRDNAKNSLNLQMSSLRAEDTAVYFCAREPLQHWGQGTLVTVSS
# VL: KIVLTQTPLSSPVTLGQPASISCRSSQSLVHSDGDTYLSWLHQRPGQPPRLLIYTISNRLSGVPDRFSGSGAGTDFTLKISRVEAEDVGVYYCMQGTQFPALTFGGGTKVEIKR
# B2: mAb27404 (antibody, human IgG4 S228P, kappa, V domains shown)
# VH: B1 VH with V48I, Y50F
# VL: B1 VL with K1N, I2V, L9I, T14I, I56V, L60V
# B3: mAb27400 (antibody, human IgG4 S228P, kappa, V domains shown)
# VH: EMQLVESGGGLVQPGGSLKVSCAASGFTLSDSSIHWVRQASGKGLEWIGRIRSKPYSYATAYAASVKGRFTISRDDSKNTAFLQMSGLKTEDTAVYYCTGGDDFWGQGTLVTVSS
# VL: DIQMTQSPSTLSASVGDRITITCRASQSISTWLAWYQQKPGKAPKLLIYKASSLEGGVPSRFSGSGSGTDFTLTISSLQPDDFATYYCQQYNTYWTFGQGTKVEIKR
# B4: mAb27242 (antibody, human IgG4 S228P, kappa, V domains shown)
# VH: QVQLQQWGAGLLKPSETLSLTCAVYNGSFSSFYWSWIRQPPGKGLEWLGEINHRGRTNNNPSLASRVTISVDTSKSQFSLRLTSVTAADTATYYCTAHTRGFLYWGQGTRVTVSS
# VL: DIQMTQSPSSLSASVGDRVTITCQASQDINNYLNWYQQKPGQAPNLLIYDVFNLLPGVPSRFSGSGSGTDFSFTISSLQPEDIATYYCQHYDDLPLTFGGGTTVAIRR
# Tests used:
# [1] = biological target: T1, full length human ACVR1 (R206H) on HEK293/BRE-luc/hACVR1-R206H-clone H2 cells (human, UniProt Q04771 21-509); assay: flow cytometry, 70 nM antibody, HEK293/hACVR1-R206H cells
# T1 construct: also called HEK293/hACVR1-R206H
# T1 sequence: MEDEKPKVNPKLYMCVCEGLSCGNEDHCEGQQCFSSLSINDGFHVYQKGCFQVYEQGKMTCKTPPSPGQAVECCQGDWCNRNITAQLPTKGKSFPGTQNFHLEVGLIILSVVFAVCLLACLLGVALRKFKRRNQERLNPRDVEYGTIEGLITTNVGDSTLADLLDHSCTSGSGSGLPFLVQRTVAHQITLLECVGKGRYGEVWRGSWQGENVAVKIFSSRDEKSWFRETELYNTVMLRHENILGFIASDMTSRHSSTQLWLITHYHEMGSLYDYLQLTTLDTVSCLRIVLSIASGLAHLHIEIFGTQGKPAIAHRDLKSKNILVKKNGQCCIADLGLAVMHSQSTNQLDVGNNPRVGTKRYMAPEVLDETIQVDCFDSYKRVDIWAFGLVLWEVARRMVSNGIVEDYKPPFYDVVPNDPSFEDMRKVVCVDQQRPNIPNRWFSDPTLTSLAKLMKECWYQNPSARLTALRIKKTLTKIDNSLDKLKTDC
# Experimental: Cells were fixed using BD CytoFix™ (Becton Dickinson, #554655) and analyzed on either Hypercyt® or IQue® Flow Cytometers (Intellicyt®). Unstained and secondary antibody alone controls were also tested for all cell lines. The results were analyzed using ForeCyt® (IntelliCyt®) software to determine the geometric means of fluorescence for viable cells and binding ratios were calculated by normalizing the geometric mean value of the test condition by the geometric mean value of the corresponding unstained cells.
# [2] = biological target: T1, full length human ACVR1 (R206H) on …; assay: cell-based or functional assay
# [3] = biological target: T2, human ACVR1 extracellular domain expressed with a C-terminal mouse IgG2a Fc tag (human); assay: SPR (Biacore), mAb captured, 37 C
# T2 construct: also called hACVR1-mFc
# T2 chain: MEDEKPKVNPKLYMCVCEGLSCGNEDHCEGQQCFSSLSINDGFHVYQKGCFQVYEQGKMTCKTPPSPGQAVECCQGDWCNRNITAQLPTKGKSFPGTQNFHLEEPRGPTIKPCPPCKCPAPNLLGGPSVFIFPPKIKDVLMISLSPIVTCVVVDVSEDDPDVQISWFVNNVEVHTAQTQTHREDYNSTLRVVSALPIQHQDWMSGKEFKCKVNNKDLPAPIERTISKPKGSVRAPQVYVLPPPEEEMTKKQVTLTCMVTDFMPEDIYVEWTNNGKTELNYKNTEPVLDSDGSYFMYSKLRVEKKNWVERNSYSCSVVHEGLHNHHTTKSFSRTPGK
# Experimental: (§1) Equilibrium dissociation constants (KD) for ACVR1 binding to purified anti-ACVR1 monoclonal antibodies were determined using a real-time surface plasmon resonance biosensor (SPR-Biacore), Biacore 4000. All binding studies were performed in 10 mM HEPES, 150 mM NaCl, 3 mM EDTA, and 0.05% v/v surfactant Tween-20, pH 7.4 (HBS-ET) running buffer at 25° C. and 37° C. The Biacore CM5 sensor surface was first derivatized by amine coupling with a monoclonal mouse anti-human Fc antibody (GE, #BR-1008-39 or REGN2567) to capture anti-ACVR1 monoclonal antibodies. […] ACVR1 reagents were then injected over anti-human Fc captured anti-ACVR1 monoclonal antibody surface for 2.5-3 minutes at a flow rate of 30 μL/minute, while the dissociation of monoclonal antibody bound ACVR1 reagent was monitored for 10-15 minutes in HBS-ET running buffer. Kinetic association rate constant (kₐ) and dissociation rate constant (kd) were determined by fitting the real-time sensorgrams to a 1:1 binding model using Scrubber 2.0c curve-fitting software. Binding dissociation equilibrium constants (KD) and dissociative half-lives (t½) were calculated from the kinetic rate constants as: […]
# [4] = biological target: T3, human ACVR1 extracellular domain expressed with a C-terminal myc-myc-hexahistidine tag (human); assay: SPR (Biacore), mAb captured, 37 C
# T3 construct: also called hACVR1-MMH
# T3 chain: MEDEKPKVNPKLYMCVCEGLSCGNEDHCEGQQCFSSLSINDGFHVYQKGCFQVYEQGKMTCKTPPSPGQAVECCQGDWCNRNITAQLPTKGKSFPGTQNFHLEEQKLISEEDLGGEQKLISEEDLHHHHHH
# Experimental: as §1
# [5] = biological target: T4, mouse ACVR1 extracellular domain expressed with a C-terminal myc-myc-hexahistidine tag (mouse); assay: SPR (Biacore), mAb captured, 37 C
# T4 construct: also called mACVR1-MMH; mACVR1-mmh
# T4 chain: T3 chain with M1V, P10Q
# Experimental: as §1
# [6] = biological target: T2, human ACVR1 extracellular domain …; assay: SPR (Biacore), mAb captured, 25 C
# Experimental: as §1
# [7] = biological target: T3, human ACVR1 extracellular domain …; assay: SPR (Biacore), mAb captured, 25 C
# Experimental: as §1
# [8] = biological target: T4, mouse ACVR1 extracellular domain …; assay: SPR (Biacore), mAb captured, 25 C
# Experimental: as §1
# [9] = biological target: T3, human ACVR1 extracellular domain …; assay: SPR (Biacore), mAb captured, 37 C; 37 C
# Experimental: as §1
# [10] = biological target: T4, mouse ACVR1 extracellular domain …; assay: SPR (Biacore), mAb captured, 25 C; 25 C
# Experimental: as §1
binder,measurement,setting,value
B1,MFI - Normalized to Unstained Control,[1],1560 fold
same,"% Inhibition, BRE-luc reporter, 2 nM hBMP7",[2],107%
same,"IC50 [M], BRE-luc reporter, 2 nM hBMP7",[2],7.6e-10 M
same,100 nM Ag Bound (RU),[3],185 RU
same,Kd,[3],3.18 nM
same,koff,[3],0.000742 s⁻¹
same,kon,[3],233000 M⁻¹ s⁻¹
same,t½,[3],16 min
same,900 nM or 100 nM Ag Bound (RU),[4],52 RU
same,Kd,[4],44.4 nM
same,koff,[4],0.00528 s⁻¹
same,kon,[4],119000 M⁻¹ s⁻¹
same,t½,[4],2.2 min
same,900 nM or 100 nM Ag Bound (RU),[5],2 RU
same,100 nM Ag Bound (RU),[6],142 RU
same,Kd,[6],1.9 nM
same,koff,[6],0.000201 s⁻¹
same,kon,[6],106000 M⁻¹ s⁻¹
same,t½,[6],57 min
same,900 nM or 100 nM Ag Bound (RU),[7],37 RU
same,Kd,[7],21 nM
same,koff,[7],0.00147 s⁻¹
same,kon,[7],69900 M⁻¹ s⁻¹
same,t½,[7],8 min
same,900 nM or 100 nM Ag Bound (RU),[8],0 RU
same,binding result,[8],no binding (tested: 900 nM or 100 nM)
B2,MFI - Normalized to Unstained Control,[1],1870 fold
same,"% Inhibition, BRE-luc reporter, 2 nM hBMP7",[2],109%
same,"IC50 [M], BRE-luc reporter, 2 nM hBMP7",[2],8.8e-10 M
same,100 nM Ag Bound (RU),[3],216 RU
same,Kd,[3],1.11 nM
same,koff,[3],0.000338 s⁻¹
same,kon,[3],303000 M⁻¹ s⁻¹
same,t½,[3],34 min
same,900 nM or 100 nM Ag Bound (RU),[4],67 RU
same,Kd,[4],7.63 nM
same,koff,[4],0.00183 s⁻¹
same,kon,[4],240000 M⁻¹ s⁻¹
same,t½,[4],6 min
same,900 nM or 100 nM Ag Bound (RU),[5],4 RU
same,100 nM Ag Bound (RU),[6],160 RU
same,Kd,[6],0.444 nM
same,koff,[6],8.76e-05 s⁻¹
same,kon,[6],198000 M⁻¹ s⁻¹
same,t½,[6],132 min
same,900 nM or 100 nM Ag Bound (RU),[7],46 RU
same,Kd,[7],4.49 nM
same,koff,[7],0.000446 s⁻¹
same,kon,[7],99200 M⁻¹ s⁻¹
same,t½,[7],26 min
same,900 nM or 100 nM Ag Bound (RU),[8],1 RU
same,binding result,[8],no binding (tested: 900 nM or 100 nM)
B3,MFI - Normalized to Unstained Control,[1],840 fold
same,Kd,[9],49 nM
same,koff,[9],0.000476 s⁻¹
same,kon,[9],9710 M⁻¹ s⁻¹
same,t½,[9],24 min
same,"% Inhibition, BRE-luc reporter, 2 nM hBMP7",[2],96%
same,"IC50 [M], BRE-luc reporter, 2 nM hBMP7",[2],2e-09 M
same,100 nM Ag Bound (RU),[3],68 RU
same,Kd,[3],12.8 nM
same,koff,[3],0.000163 s⁻¹
same,kon,[3],12700 M⁻¹ s⁻¹
same,t½,[3],71 min
same,900 nM or 100 nM Ag Bound (RU),[5],2 RU
same,100 nM Ag Bound (RU),[6],24 RU
same,Kd,[6],11.9 nM
same,koff,[6],0.000142 s⁻¹
same,kon,[6],11900 M⁻¹ s⁻¹
same,t½,[6],81 min
same,900 nM or 100 nM Ag Bound (RU),[8],-3 RU
B4,MFI - Normalized to Unstained Control,[1],1730 fold
same,Kd,[10],602 nM
same,koff,[10],0.144 s⁻¹
same,kon,[10],238000 M⁻¹ s⁻¹
same,t½,[10],0.08 min
same,"% Inhibition, BRE-luc reporter, 2 nM hBMP7",[2],109%
same,"IC50 [M], BRE-luc reporter, 2 nM hBMP7",[2],1.2e-09 M
same,100 nM Ag Bound (RU),[3],250 RU
same,Kd,[3],0.669 nM
same,koff,[3],0.000189 s⁻¹
same,kon,[3],282000 M⁻¹ s⁻¹
same,t½,[3],61 min
same,900 nM or 100 nM Ag Bound (RU),[4],82 RU
same,Kd,[4],5.77 nM
same,koff,[4],0.00083 s⁻¹
same,kon,[4],144000 M⁻¹ s⁻¹
same,t½,[4],14 min
same,100 nM Ag Bound (RU),[6],199 RU
same,Kd,[6],0.202 nM
same,koff,[6],2.9e-05 s⁻¹
same,kon,[6],144000 M⁻¹ s⁻¹
same,t½,[6],398 min
same,900 nM or 100 nM Ag Bound (RU),[7],63 RU
same,Kd,[7],1.56 nM
same,koff,[7],0.000135 s⁻¹
same,kon,[7],86800 M⁻¹ s⁻¹
same,t½,[7],86 min

# — patent US20210253716A1 (Regeneron, published 2021)
